Assay results published in the DeepSol protein solubility set.

Test: soluble on expression in E. coli; label from the status in PepcDB or PDB records

Sequence | soluble on expression in E. coli
MDSKAKQMILSALCKHFSLDPEPFVGGAGESDIKTLYSNVLKASGKEVSAQNNDVLKWLDFAEGFSSDSKDWFSALEKLNLELATKSVLLGNGLTPSAADVAVFSALHSSVLGLSDSDKEKVPHVIRWVNYIQNKEELSTLFAPIPVKLPEFSFEVPKPAIKVETNSNSKKAAEGVKPVDKPDVQPQLGTKKTEPEEPKKNAAKEKDAKKEKKKPAEPEPAKKEAELSVSLLNIQVGLIRKAWKHPSADSLLVEEIDVGEDKVRQVVSGLAKFCSPEDLTNRLVALITNVKPGKLRDVMSQGLVLCASSEDHSVVEPLLPPAGAKPGERVSFSGIEGKPEDVLNPKKKQLEKITPGLYTDENGVATYKGIQFMTSAGPCTSSIPKATIK | soluble
MIKVRVPDFSDKKFSDRWRYCVGTGRLGLALQKEYIETLKYVKENIDFKYIRGHGLLCDDVGIYREDVVGDEVKPFYNFTYIDRIFDSFLEIGIRPFVEIGFMPKKLASGTQTVFYWEGNVTPPKDYEKWSDLVKAVLHHFISRYGIEEVLKWPFEIWNEPNLKEFWKDADEKEYFKLYKVTAKAIKEVNENLKVGGPAICGGADYWIEDFLNFCYEENVPVDFVSRHAYTSKQGEYTPHLIYQEIMPSEYMLNEFKTVREIIKNSHFPNLPFHITEYNTSYSPQNPVHDTPFNAAYIARILSEGGDYVDSFSYWTFSDVFEERDVPRSQFHGGFGLVALNMIPKPTFYTFKFFNAMGEEMLYRDEHMLVTRRDDGSVALIAWNEVMDKTENPDEDYEVEIPVRFRDVFIKRQLIDEEHGNPWGTWIHMGRPRYPSKEQVNTLREVAKPEIMTSQPVANDGYLNLKFKLGKNAVVLYELTERIDESSTYIGLDDSKINGY | soluble
IQVFVKNPDGGSYAYAINPNSFILGLKQQIEDQQGLPKKQQQLEFQGQVLQDWLGLGIYGIQDSDTLILSKKKG | soluble
ELIRVGVVGTGYMGENHVRIYSEMEDVRLIGISDPNSSRVKELAARYETLPFSDHKKMFGKTNLDAISIAAPTTLHCPIVLDALEAGVDVLVEKPIADSVENATAMIESAEEMDRHLMVGHIERFNPAVLKLKEVVDSGVLGKIVSV | not soluble
MNLVGIVGTNSERSTNRKLLRFMAEHFAPQAAIEVLEIKDLPAFDEPENKTAPAAVTAFSKKIAAADGVIIATPEYNHTIPAPLGSALEWIAYTSRVLVNKPVMIVGCSLGALGTSRAQAHLRQILDAPELKARVMPGTEFFLGHSEHVLDDDFNLNNPEKVAELEEHFTEFQDFVIVTNQIVKQADTDRKKAFVWEAGELEHHHHHH | soluble
MNSASFLQSRLISRSFLVRRSLKRYSGLAKPYTFQQPTIYALSTPANQTSAIAIIRISGTHAKYIYNRLVDSSTVPPIRKAILRNIYSPSSCSVKPHDQKESKILLDTSLLLYFQAPYSFTGEDVLELHVHGGKAVVNSILKAIGSLHDRSSGKDIRFALPGDFSRRAFQNGKFDLTQLEGIKDLIDSETESQRRSALSSFNGDNKILFENWRETIIENMAQLTAIIDFADDNSQEIQNTDEIFHNVEKNIICLRDQIVTFMQKVEKSTILQNGIKLVLLGAPNVGKSSLVNSLTNDDISIVSDIPGTTRDSIDAMINVNGYKVIICDTAGIREKSSDKIEMLGIDRAKKKSVQSDLCLFIVDPTDLSKLLPEDILAHLSSKTFGNKRIIIVVNKSDLVSDDEMTKVLNKLQTRLGSKYPILSVSCKTKEGIESLISTLTSNFESLSQSSADASPVIVSKRVSEILKNDVLYGLEEFFKSKDFHNDIVLATENLRYASDGIAKITGQAIGIEEILDSVFSKFCIGK | not soluble
MPVLHNRISNDELKAKMLAESEPRTTISFYKYFTIASPQQTRDALYQVFTALDVFGRVYLAHEGINAQISVPQSKLETFRQQLYTFDPALDGVRLNIALEDDGKSFWVLRMKVRDRIVADGIDDPTFDASNVGDYLKAADVNAMLDDPDAVFIDMRNHYEYEVGHFENALEIPADTFREQLPKAVEMLREHADKKIVMYCTGGIRCEKASAWMKHNGFNKVWHIEGGIIEYARRARAQGLPVRFIGKNFVFDERMGERISDEVIAHCHQCGASCDSHTNCKNDGCHLLFIQCPQCASKFNGCCSEQCCEELALPEEEQRRRRAGRENGNKIFNKSRGRLNSKLSIPDPAE | not soluble
VTPSEGNAPLPELHNTVVVAAFEGWNDAGDAAGDAVAHLAASWQALPIVEIDDEAYYDYQVNRPVIRQVDGVTRELQWPAMRISHCRPPGSDRDVVLMCGVEPNMRWRTFCDELLAVIDKLNVDTVVILGALLADTPHTRPVPVSGAAYSAASARQFGLQETRYEGPTGIAGVFQSACVGAGIPAVTFWAAVPHYVSHPPNPKATIALLRRVEDVLDVEVPLADLPAQAEAWEREITETIAEDHELAEYVQTLEQHGDAAVDMNEALGNIDGDALAAEFERYLRRRRPGFGR | soluble
MGSDKIHHHHHHMKIDSEHLEILAVIVEKGGLTEGAEALGKSQPSVSRTMALLEERIGTPLFEAGRRPLRPTELGNQLARLGAKIRTQNLEASRLVQRYRQGQAGRLRLGGTPIFFDGVVAGMVAEFQNRHSDVQITQTYGYFEDLSAGLRSGALDLAILPMHANMIPADMQFTPLLAGRNVIVGSATHPLARRGAITLADIEPYSWIAPPPDSPLFRDLQRSLKSIGLDDFKVSFSGGTLASIFSVVLGSDSLTVLPYSVVFTHQRVIPLQALPLRIEHPDRQLGLLTATERMPPPALERFVAFVTEKFKHLSTRMEHEQQVTRRRG | not soluble
MSLTTLTTALKAGPEAPAILHRCRELVAPALAEAVGGMHPWMREMADYALGRGAAGGAPAAHSQGKGVRQALAVLGAEAAGGPAEAGVPAAVAVELVHTFSLLHDDIMDGDAMRRGRPALWKAYGTGPAVLAGDALFALAVQTLTTASAPGAAHRLSAALGDLVRGQADDLLFAHRPWTGPEAVSVAEYEAMAEHKTGSLLGCALALGAHLAGAPEETAAVLDRTGRHLGVAFQIVDDLLGIWGDPAVTGKPVHGDLRQGKKTFPVLAALATPSGSALEGLLTARDDTAVVRAAAVVEQAGGRSAALREARRHLTVAHGLLASVQPAPRPAADLRTLLSALSRRTIEGHHHHHH | soluble
MGSDKIHHHHHHMLQQVPTRAFHVIAKPSGSDCNLNCDYCFYLEKQSLYREKPVTHMDDDTLEAYIRHYIAASELQNEVAFTWQGGEPTLLGLEFYRRAVALQAKYGAGRKISNSFQTNGVLLDDEWCAFLAENNFLVGLSLDGPAEIHNQYRVTKGGRPTHKLVMRALTLLQKHHVDYNVLVCVNRTSAQQPLQVYDFLCDAGVEFIQFIPVVERLADETAVRDGLKLHAPGDIQGELTEWSVRPDEFGEFLVAIFDHWIKRDVGKIFVMNIEWAFANFVGAPGAVCHHQPTCGRSVIVEHNGDVYACDHYVYPQYRLGNMHQQTIAEMIDSPQQQVFGEDKFKQLPAQCRSCNVLKACWGGCPKHRFMLDASGKPGLNYLCAGYQRYFRHLPPYLKAMADLLAHGRPASDIMQAHLMVVNK | not soluble
MGHHHHHHSHMYFFSKHPEASIQAVFSDAQMHIWALEGLSHLVAASFTEDRFGVVQTTLPAILNTLLTLQEAVDKYFKLPHASSKPPRISGSLVDTSYKTLRFAFRASLKTAIYRITTTFGEHLNAVQASAEHQKRLQQFLEFKE | soluble
DKVSLKLPKSNGELFEFKWLDHKIAYIALNGFHDKKILQDFNDVYDEIKQSRGLIIDLRFNGGGNSSIAAEILSHFTNKGLEGSIWKNRKHIAAFKAWGNYSGKYKIYAQDNAWESGAMESLKAKENSHIVPTYVLIGRNTASAAEDFLIYADKLKHFTTLGENTYGSTGQPIFFDLPGGGSFRICTKRDTYPDGREFVGYGITPQVIIDRMPEHLRSEKDIVLYSAIKKLKEKI | not soluble
MLSVMRMQIPKTHPRYESLMKREKIIEALDKGILAKAGLIAHGRGETFDYLIGEKTAPIALEAIKAAAALLILAENPVISVNGNTVALAIDEVVELAKELNGKIEVNLFYRTKERELAIKRAFEEKFKDDIETGKIKILGIDDANKQIPNLDSLRGKVSEEGIFTADVVLVPLEDGDRAEALVNMGKKVIAIDLNPLSRTARKSTITIVDELTRAMPLLIKYVKEFKNKDREELLKIVEDFDNKKNLKDMIDYIAERLKNLSLEHHHHHH | soluble
MTTELETSFADLGLSAPILSALTDLGYEKPSPIQLECIPHLLNGRDVLGMAQTGSGKTAAFGLPLLHNIKADLKSPQVLVLAPTRELAVQVAEALSSFSKHINGVNVVALYGGQRYDVQLRALRQGPQVVVGTPGRLLDHLKRGTLNLSNLSGLVLDEADEMLRMGFIEDVETIMAQIPAEHQTALFSATMPEAIRRITRRFMKEPQEVRIQSSVTTRPDISQSYWRVGGGYRKNEALVRFLEAEDFDAAIIFVRTKNATLEVAEALERSGYNSAALNGDMNQALREQTLERLKDGRLDILIATDVAARGLDVERISLVVNYDIPMDSESYVHRIGRTGRAGRAGRALLFVENRERRLLQNIERTMKLTIPEVELPNADLLSERRLAKFAAKVSQQLESSDLDMYRALLAKLQPEEEFDIETLAAALLKMAQGERPLILPPEAPRRPQREFNSRDDRGNDRGSRDRGDSRRDNRSDSRSADSRDGGERPARRERRDVGEMELYRIEVGRDDGVEVRHIVGAIANEGDISSRYIGNIKLFASHSTIELPKGMPGEMLSHFTRTRILNKPLNMQLLGDAQPHERRERPAGGNGGERRGGGRPFSGERREGAGAPPRRSFSGDRAPTGGGERRGNRDGQRSAAPRRDDAAAPAAAAAAPARRRFGDA | not soluble
MALRNVPFRSEVLGWDPDSLADYFKKLNYKDCEKAVKKYHIDGARFLNLTENDIQKFPKLRVPILSKLSQEINKNEERRSIFTRKPQVPRFPEETESHEEDNGGWSSFEEDDYESPNDDQDGEDDGDYESPNEEEEAPVEDDADYEPPPSNDEEALQNSILPAKPFPNSNSMYIDRPPSGKTPQQPPVPPQRPMAALPPPPAGRNHSPLPPPQTNHEEPSRSRNHKTAKLPAPSIDRSTKPPLDRSLAPFDREPFTLGKKPPFSDKPSIPAGRSLGEHLPKIQKPPLPPTTERHERSSPLPGKKPPVPKHGWGPDRRENDEDDVHQRPLPQPALLPMSSNTFPSRSTKPSPMNPLPSSHMPGAFSESNSSFPQSASLPPYFSQGPSNRPPIRAEGRNFPLPLPNKPRPPSPAEEENSLNEEWYVSYITRPEAEAALRKINQDGTFLVRDSSKKTTTNPYVLMVLYKDKVYNIQIRYQKESQVYLLGTGLRGKEDFLSVSDIIDYFRKMPLLLIDGKNRGSRYQCTLTHAAGYP | soluble
MQPYLIPQPGIRVSLSELIEMRHRVREVQLFSTPSRRSPLIGLHHSKLRGRGVDFDQVRVYQAGDDVRSIDWRVTARTQEPHTKLFHEERERPIFILVEQSRRLFFGSGLMFKSVLAAQAAALIGWAALEHNDRVGGLVFGDNEHYEIKPRRSKQSLLQLLNRLVRVNQSLHTEIPADRDAFGTALRRAREVLRPGSLVIVLCDERALSDVAEQQLSLLSRHSDLLLLPLSDPLDRALPAAGLLRFAERGAQLELDTLNPELRRAYRQQGEDRSARWELLAQKLRVLLMPLSTQSELVEQLREYLNAQRPVKRK | not soluble
MIVPEVSSSSTNEANVPESSAGKYTYKDIRDDRVLTYFDLRRGESKTFTVRLQATYAGNFILPAIQCEAMYDAAVQARTKAGRTTVSR | not soluble
